The labels stand for the following.
B1: Zinc finger homeobox protein 3, residues 2244 to 2299; numbered along this chain, Q15911 (parent)
chain: SSRTRFTDYQLRVLQDFFDANAYPKDDEFEQLSNLLNLPTRVIVVWFQNARQKARK
B2: Probable E3 ubiquitin-protein ligase MID2, residues 191 to 235; numbered along this chain, Q9UJV3 (parent)
chain: RGITCLDHENEKVNMYCVSDDQLICALCKLVGRHRDHQVASLNDR

± gives the uncertainty stated by the source.

In the first data set the parent is B1. Nature of the data set: abundance fitness (aPCA) (normalised: wild type 0, dead -1); higher = more abundant; growth selection in yeast, the domain comes from the species named. As to conditions: Homo sapiens.
As for T7I, the abundance fitness is -0.586 ± 0.19.

Regarding T7N, the abundance fitness was -0.565 ± 0.21.

With T7V, the abundance fitness is -0.614 ± 0.094.

Take T7R: the abundance fitness was -0.556 ± 0.086.

Turning to Q52R, the abundance fitness is -0.135 ± 0.071.

Regarding Q52H, the abundance fitness is -0.092 ± 0.08.

Consider Q52C, for which the abundance fitness turned out to be 0.002 ± 0.093.

As for Q52F, the abundance fitness is -0.21 ± 0.08.

As for Q52M, the abundance fitness was -0.142 ± 0.11.

Consider R3C, for which the abundance fitness worked out at 0.467 ± 0.13.

Turning to R3I, the abundance fitness came out at 0.108 ± 0.19.

For R3T, the abundance fitness came to 0.4 ± 0.13.

With R3H, the abundance fitness was found to be 0.368 ± 0.17.

For the variant R3A, the abundance fitness is 0.388 ± 0.087.

As to R3G, the abundance fitness came to 0.281 ± 0.068.

As for R3N, the abundance fitness turned out to be 0.43 ± 0.17.

In the case of F18I, the abundance fitness is -0.249 ± 0.22.

In the case of F18A, the abundance fitness is -0.279 ± 0.086.

As for F18Y, the abundance fitness came to 0.011 ± 0.18.

Take F18Q: the abundance fitness is -0.268 ± 0.14.

Consider F17D, for which the abundance fitness is -0.876 ± 0.18.

As for F17Y, the abundance fitness is 0.03 ± 0.13.

In the case of F17A, the abundance fitness stood at 0.17 ± 0.1.

As to F17W, the abundance fitness was -0.214 ± 0.11.

Regarding F17V, the abundance fitness is -0.124 ± 0.087.

Take F17T: the abundance fitness is -0.074 ± 0.12.

Take Q15V: the abundance fitness is -0.319 ± 0.088.

Regarding Q15T, the abundance fitness is -0.113 ± 0.12.

As to Q15C, the abundance fitness was -0.668 ± 0.16.

On to Q15G, for which the abundance fitness was -0.01 ± 0.073.

Regarding Q15H, the abundance fitness is -0.036 ± 0.19.

Turning to Q15S, the abundance fitness was -0.22 ± 0.096.

Q15R: the abundance fitness was -0.213 ± 0.078.

Regarding Y23C, the abundance fitness is -0.283 ± 0.11.

With Y23F, the abundance fitness amounted to 0.122 ± 0.14.

Turning to Y23T, the abundance fitness was -0.043 ± 0.093.

Regarding Y23K, the abundance fitness was -0.13 ± 0.099.

For Y23W, the abundance fitness was determined as 0.019 ± 0.081.

For Y23S, the abundance fitness was -0.051 ± 0.092.

On to Y23Q, for which the abundance fitness is -0.011 ± 0.1.

In the case of S1G, the abundance fitness worked out at 0.256 ± 0.15.

S1I: the abundance fitness turned out to be 0.252 ± 0.3.

For S1D, the abundance fitness came to 0.137 ± 0.34.

As to D8A, the abundance fitness was -0.123 ± 0.082.

On to D8K, for which the abundance fitness was -0.027 ± 0.14.

In the case of D8P, the abundance fitness is -0.235 ± 0.13.

For the variant D8G, the abundance fitness was -0.145 ± 0.1.

Take Q48C: the abundance fitness is -0.221 ± 0.18.

Turning to Q48L, the abundance fitness was -0.309 ± 0.12.

With Q48W, the abundance fitness was -0.554 ± 0.15.

Q48A: the abundance fitness is -0.146 ± 0.13.

For the variant F29V, the abundance fitness is -0.102 ± 0.079.

For the variant F29P, the abundance fitness is -0.915 ± 0.17.

Regarding F29W, the abundance fitness was -0.27 ± 0.094.

Turning to F29I, the abundance fitness worked out at 0.071 ± 0.13.

Consider F29Q, for which the abundance fitness was -0.435 ± 0.16.

Consider F29Y, for which the abundance fitness is -0.052 ± 0.15.

As for R12H, the abundance fitness was found to be 0.051 ± 0.066.

Take R12W: the abundance fitness was -0.504 ± 0.16.

With R12T, the abundance fitness is -0.136 ± 0.073.

A20F: the abundance fitness was -0.618 ± 0.33.

For A20R, the abundance fitness stood at 0.075 ± 0.081.

A20Q: the abundance fitness is -0.111 ± 0.12.

For the variant A20D, the abundance fitness was -0.102 ± 0.16.

As for Q10R, the abundance fitness was -0.724 ± 0.093.

For the variant Q10N, the abundance fitness is -0.76 ± 0.19.

Turning to Q10G, the abundance fitness is -0.863 ± 0.08.

As for Q10W, the abundance fitness is -0.964 ± 0.13.

For Q10S, the abundance fitness is -0.445 ± 0.091.

Consider T40F, for which the abundance fitness was -0.107 ± 0.087.

As to T40W, the abundance fitness is -0.136 ± 0.11.

For the variant T40H, the abundance fitness is -0.127 ± 0.097.

On to T40G, for which the abundance fitness is -0.208 ± 0.077.

For the variant T40D, the abundance fitness is -0.356 ± 0.11.

Take T40R: the abundance fitness is -0.139 ± 0.078.

In the case of V13A, the abundance fitness is -0.018 ± 0.099.

With V13P, the abundance fitness is -0.773 ± 0.13.

Turning to V13I, the abundance fitness was -0.359 ± 0.24.

For the variant V13N, the abundance fitness is -0.244 ± 0.18.

Regarding R51H, the abundance fitness is -0.382 ± 0.41.

Take A50D: the abundance fitness was -1.01 ± 0.17.

A50H: the abundance fitness was -0.253 ± 0.095.

For the variant A50Q, the abundance fitness is -0.197 ± 0.12.

On to A50M, for which the abundance fitness was 0.047 ± 0.12.

Take A50Y: the abundance fitness is -0.196 ± 0.1.

As for A50I, the abundance fitness was -0.241 ± 0.11.

As for A50P, the abundance fitness was -1.01 ± 0.11.

As for A50L, the abundance fitness was -0.159 ± 0.073.

Consider T4I, for which the abundance fitness came out at 0.032 ± 0.19.

With T4A, the abundance fitness was -0.883 ± 0.17.

In the case of T4W, the abundance fitness was -0.656 ± 0.11.

As for T4Y, the abundance fitness was -0.198 ± 0.28.

In the case of V42Y, the abundance fitness is -0.134 ± 0.17.

As to V42E, the abundance fitness is 0.174 ± 0.11.

In the case of V42G, the abundance fitness is -0.056 ± 0.087.

S33D: the abundance fitness is -0.833 ± 0.18.

For S33G, the abundance fitness was -0.083 ± 0.075.

Regarding S33W, the abundance fitness was -0.848 ± 0.13.

As for S33C, the abundance fitness is -0.498 ± 0.15.

Regarding S33A, the abundance fitness was -0.109 ± 0.1.

Take S33N: the abundance fitness was -0.728 ± 0.23.

Turning to S33R, the abundance fitness was -0.05 ± 0.077.

For the variant L32G, the abundance fitness was -0.842 ± 0.083.

For L32C, the abundance fitness was -0.641 ± 0.14.

As to L32D, the abundance fitness was -0.637 ± 0.33.

Turning to L32I, the abundance fitness is -0.17 ± 0.27.

Regarding L32F, the abundance fitness is -0.546 ± 0.16.

With E30G, the abundance fitness was -0.357 ± 0.38.

In the case of E30S, the abundance fitness is -0.135 ± 0.4.

In the case of P39V, the abundance fitness is -1.09 ± 0.14.

Regarding P39A, the abundance fitness is -0.342 ± 0.095.

In another data set the parent is B2. Described as above. As to conditions: Homo sapiens.
For the variant L42T, the abundance fitness was -0.096 ± 0.086.

On to L42Q, for which the abundance fitness was -0.134 ± 0.078.

In the case of L42V, the abundance fitness was -0.016 ± 0.052.

For the variant L42R, the abundance fitness was -0.095 ± 0.06.

With L42Y, the abundance fitness is -0.127 ± 0.11.

Regarding L42S, the abundance fitness is 0.046 ± 0.06.

With L42W, the abundance fitness was -0.198 ± 0.07.

Turning to N43V, the abundance fitness was -0.042 ± 0.086.

On to N43P, for which the abundance fitness amounted to 0.062 ± 0.064.

Regarding N43I, the abundance fitness was -0.275 ± 0.2.

For N43A, the abundance fitness was determined as 0.1 ± 0.059.

As for N43H, the abundance fitness is -0.016 ± 0.079.

In the case of N43S, the abundance fitness is -0.022 ± 0.057.

Regarding N43E, the abundance fitness was determined as 0.192 ± 0.065.

Regarding N43L, the abundance fitness was -0.126 ± 0.067.

For the variant N43Q, the abundance fitness was -0.043 ± 0.068.

As to N43G, the abundance fitness was -0.011 ± 0.056.

As for N43K, the abundance fitness turned out to be 0.164 ± 0.071.

On to N43D, for which the abundance fitness was -0.036 ± 0.12.

Turning to N43C, the abundance fitness is -0.097 ± 0.1.

For N43R, the abundance fitness was -0.154 ± 0.054.

For the variant N43T, the abundance fitness was determined as 0.008 ± 0.087.

As to N43W, the abundance fitness was -0.405 ± 0.088.

Consider N43M, for which the abundance fitness is -0.252 ± 0.19.

In the case of R45H, the abundance fitness was 0.256 ± 0.29.

Turning to R45C, the abundance fitness stood at 0.018 ± 0.072.

Turning to R45K, the abundance fitness turned out to be 0.025 ± 0.11.

On to R45M, for which the abundance fitness was -0.201 ± 0.2.

On to R45P, for which the abundance fitness is 0.041 ± 0.096.

For the variant R45W, the abundance fitness was -0.164 ± 0.082.

As for R45T, the abundance fitness was -0.04 ± 0.1.

On to R45D, for which the abundance fitness is -0.087 ± 0.14.

As to R45V, the abundance fitness was -0.105 ± 0.084.

As to R45I, the abundance fitness was -0.033 ± 0.13.

As for R45L, the abundance fitness was -0.253 ± 0.088.

For R45G, the abundance fitness turned out to be 0.15 ± 0.067.

On to R45F, for which the abundance fitness worked out at 0.151 ± 0.23.

On to R45A, for which the abundance fitness worked out at 0.178 ± 0.12.

As for R45Q, the abundance fitness was found to be 0.033 ± 0.06.

Consider R45E, for which the abundance fitness was found to be 0.276 ± 0.079.

In the case of R45S, the abundance fitness came out at 0.084 ± 0.076.

As for D44G, the abundance fitness is -0.075 ± 0.057.

For the variant D44W, the abundance fitness is -0.472 ± 0.13.

Take D44K: the abundance fitness was -0.175 ± 0.083.

For the variant D44Y, the abundance fitness was -0.285 ± 0.29.

For the variant D44E, the abundance fitness is 0.003 ± 0.14.

In the case of D44A, the abundance fitness is -0.152 ± 0.062.

On to D44L, for which the abundance fitness was -0.427 ± 0.1.

In the case of D44S, the abundance fitness is -0.067 ± 0.074.

D44P: the abundance fitness is -0.061 ± 0.13.

Regarding D44T, the abundance fitness is -0.122 ± 0.11.

D44M: the abundance fitness is -0.187 ± 0.17.

Consider D44V, for which the abundance fitness was -0.211 ± 0.064.

Take D44Q: the abundance fitness is -0.234 ± 0.33.

Turning to D44C, the abundance fitness is -0.452 ± 0.17.

For D44F, the abundance fitness was -0.422 ± 0.12.
